Three molecules from patent US20140087995A1 (published 2014) can be followed below.

Numbered stars: 1 amine (or outer) side, 2 acyl side, 3 side chain; on linkers, the order of the positions; unused ones are H or OH. Bridge positions count the residues as written; N and C are the ends. Side chains are listed from the residue outwards. Ends that are not written are not given here. * marks the point of attachment. C20 diacid = O=C(O)CCCCCCCCCCCCCCCCCCC(=O)*; γGlu = O=C(O)[C@H](CCC(=O)[*:2])N[*:1]; AEEA = NCCOCCOCC(=O)O

To fix the notation:
T1: human calcitonin receptor (human, UniProt P30988 25-474)
T1 construct: whole, on cells; Assay used cell membranes, not intact cells; also called hCTR; hCT
T1 sequence (looked up): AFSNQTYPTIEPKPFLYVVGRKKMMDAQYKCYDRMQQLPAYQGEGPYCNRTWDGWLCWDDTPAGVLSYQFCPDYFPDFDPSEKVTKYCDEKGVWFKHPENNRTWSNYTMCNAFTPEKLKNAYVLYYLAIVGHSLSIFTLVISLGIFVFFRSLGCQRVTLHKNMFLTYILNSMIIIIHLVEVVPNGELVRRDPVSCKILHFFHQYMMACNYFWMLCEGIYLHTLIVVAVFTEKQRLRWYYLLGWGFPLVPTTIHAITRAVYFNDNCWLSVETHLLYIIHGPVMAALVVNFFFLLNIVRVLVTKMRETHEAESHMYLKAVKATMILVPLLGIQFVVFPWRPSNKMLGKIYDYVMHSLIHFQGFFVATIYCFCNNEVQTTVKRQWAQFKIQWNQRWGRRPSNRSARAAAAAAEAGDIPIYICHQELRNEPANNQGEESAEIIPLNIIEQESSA

T2: human amylin receptor (amylin 3(a) receptor: human calcitonin receptor with RAMP-3) (human, UniProt P30988 25-474; O60896 24-148)
T2 construct: whole, on cells; Assay used cell membranes of the Amylin 3(a)/CRE-luc BHK cells, not intact cells; also called hAmylin-R; hAmylinR
T2 sequence (looked up) 1: T1 sequence (looked up)
T2 sequence (looked up) 2: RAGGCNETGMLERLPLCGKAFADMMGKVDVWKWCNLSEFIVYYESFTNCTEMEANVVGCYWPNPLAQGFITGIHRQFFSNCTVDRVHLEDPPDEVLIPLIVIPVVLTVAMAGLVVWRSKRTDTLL

B1: N^ε1-[2-[2-[2-[[2-[2-[2-[[(4S)-4-carboxy-4-(19-carboxynonadecanoylamino)butanoyl]amino]ethoxy]ethoxy]acetyl]amino]ethoxy]ethoxy]acetyl]-[Arg17,Pro21,Pro27,Pro34 … (peptide)
peptide: K([AEEA-AEEA-γGlu-C20 diacid])CNTATCATQRLANFLRHSSPNFGAIPSSTNVGPNTY-NH2
modifications: disulfide 2-7; N-terminus assumed
SMILES: CC[C@H](C)[C@H](NC(=O)[C@H](C)NC(=O)CNC(=O)[C@H](Cc1ccccc1)NC(=O)[C@H](CC(N)=O)NC(=O)[C@@H]1CCCN1C(=O)[C@H](CO)NC(=O)[C@H](CO)NC(=O)[C@H](Cc1c[nH]cn1)NC(=O)[C@H](CCCNC(=N)N)NC(=O)[C@H](CC(C)C)NC(=O)[C@H](Cc1ccccc1)NC(=O)[C@H](CC(N)=O)NC(=O)[C@H](C)NC(=O)[C@H](CC(C)C)NC(=O)[C@H](CCCNC(=N)N)NC(=O)[C@H](CCC(N)=O)NC(=O)[C@@H](NC(=O)[C@H](C)NC(=O)[C@@H]1CSSC[C@H](NC(=O)[C@@H](N)CCCCNC(=O)COCCOCCNC(=O)COCCOCCNC(=O)CC[C@H](NC(=O)CCCCCCCCCCCCCCCCCCC(=O)O)C(=O)O)C(=O)N[C@@H](CC(N)=O)C(=O)N[C@@H]([C@@H](C)O)C(=O)N[C@@H](C)C(=O)N[C@@H]([C@@H](C)O)C(=O)N1)[C@@H](C)O)C(=O)N1CCC[C@H]1C(=O)N[C@@H](CO)C(=O)N[C@@H](CO)C(=O)N[C@H](C(=O)N[C@@H](CC(N)=O)C(=O)N[C@H](C(=O)NCC(=O)N1CCC[C@H]1C(=O)N[C@@H](CC(N)=O)C(=O)N[C@H](C(=O)N[C@@H](Cc1ccc(O)cc1)C(N)=O)[C@@H](C)O)C(C)C)[C@@H](C)O
notes: also called compound 98
B2: N^ε1-[2-[2-[2-(19-carboxynonadecanoylamino)ethoxy]ethoxy]acetyl]-[Arg17,Pro21,Pro27,His34]-h-amylin (peptide)
peptide: K([AEEA-C20 diacid])CNTATCATQRLANFLRHSSPNFGAIPSSTNVGHNTY-NH2
modifications: disulfide 2-7; N-terminus assumed
SMILES: CC[C@H](C)[C@H](NC(=O)[C@H](C)NC(=O)CNC(=O)[C@H](Cc1ccccc1)NC(=O)[C@H](CC(N)=O)NC(=O)[C@@H]1CCCN1C(=O)[C@H](CO)NC(=O)[C@H](CO)NC(=O)[C@H](Cc1c[nH]cn1)NC(=O)[C@H](CCCNC(=N)N)NC(=O)[C@H](CC(C)C)NC(=O)[C@H](Cc1ccccc1)NC(=O)[C@H](CC(N)=O)NC(=O)[C@H](C)NC(=O)[C@H](CC(C)C)NC(=O)[C@H](CCCNC(=N)N)NC(=O)[C@H](CCC(N)=O)NC(=O)[C@@H](NC(=O)[C@H](C)NC(=O)[C@@H]1CSSC[C@H](NC(=O)[C@@H](N)CCCCNC(=O)COCCOCCNC(=O)CCCCCCCCCCCCCCCCCCC(=O)O)C(=O)N[C@@H](CC(N)=O)C(=O)N[C@@H]([C@@H](C)O)C(=O)N[C@@H](C)C(=O)N[C@@H]([C@@H](C)O)C(=O)N1)[C@@H](C)O)C(=O)N1CCC[C@H]1C(=O)N[C@@H](CO)C(=O)N[C@@H](CO)C(=O)N[C@H](C(=O)N[C@@H](CC(N)=O)C(=O)N[C@H](C(=O)NCC(=O)N[C@@H](Cc1c[nH]cn1)C(=O)N[C@@H](CC(N)=O)C(=O)N[C@H](C(=O)N[C@@H](Cc1ccc(O)cc1)C(N)=O)[C@@H](C)O)C(C)C)[C@@H](C)O
notes: also called compound 91
B3: N^ε1-[2-[2-[2-(19-carboxynonadecanoylamino)ethoxy]ethoxy]acetyl]-[His14,Arg17,Pro21,Pro27]-h-amylin (peptide)
peptide: K([AEEA-C20 diacid])CNTATCATQRLAHFLRHSSPNFGAIPSSTNVGSNTY-NH2
modifications: disulfide 2-7; N-terminus assumed
SMILES: CC[C@H](C)[C@H](NC(=O)[C@H](C)NC(=O)CNC(=O)[C@H](Cc1ccccc1)NC(=O)[C@H](CC(N)=O)NC(=O)[C@@H]1CCCN1C(=O)[C@H](CO)NC(=O)[C@H](CO)NC(=O)[C@H](Cc1c[nH]cn1)NC(=O)[C@H](CCCNC(=N)N)NC(=O)[C@H](CC(C)C)NC(=O)[C@H](Cc1ccccc1)NC(=O)[C@H](Cc1c[nH]cn1)NC(=O)[C@H](C)NC(=O)[C@H](CC(C)C)NC(=O)[C@H](CCCNC(=N)N)NC(=O)[C@H](CCC(N)=O)NC(=O)[C@@H](NC(=O)[C@H](C)NC(=O)[C@@H]1CSSC[C@H](NC(=O)[C@@H](N)CCCCNC(=O)COCCOCCNC(=O)CCCCCCCCCCCCCCCCCCC(=O)O)C(=O)N[C@@H](CC(N)=O)C(=O)N[C@@H]([C@@H](C)O)C(=O)N[C@@H](C)C(=O)N[C@@H]([C@@H](C)O)C(=O)N1)[C@@H](C)O)C(=O)N1CCC[C@H]1C(=O)N[C@@H](CO)C(=O)N[C@@H](CO)C(=O)N[C@H](C(=O)N[C@@H](CC(N)=O)C(=O)N[C@H](C(=O)NCC(=O)N[C@@H](CO)C(=O)N[C@@H](CC(N)=O)C(=O)N[C@H](C(=O)N[C@@H](Cc1ccc(O)cc1)C(N)=O)[C@@H](C)O)C(C)C)[C@@H](C)O
notes: also called compound 90

The target in one experiment is T1, human calcitonin receptor. The experiment is described as follows: ratio IC50 hCTR / IC50 hAmylin-R (reference: human amylin receptor), SPA competition assays. The protocol:
The resulting pellet was resuspended, homogenized and centrifuged (20.000 rpm, 15 min) in a buffer containing 20 mM Na-HEPES and 0.1 mM EDTA (pH 7.4, buffer 2). The resulting pellet was resuspended in buffer 2 and protein concentration was measured (BCA protein Assay, Pierce). The homogenate was kept cold during the whole procedure. The membranes were kept at −80° C. until use. The assay was performed in a 384 well Optiplate (PerkinElmer) in a total volume of 40 ul. Membranes were mixed with SPA beads. Final concentration of membranes 35 ng/μL final and SPA beads was 0.05 mg/well. Test-compounds were dissolved in DMSO and further diluted in assay buffer (50 mM Hepes, pH 7.4, 1 mM CaCl2, 5 mM MgCl₂, 0.1% OA and 0.02% Tween20). […] The final mixture was incubated with shaking at 400 rpm for 120 min at 25° C. prior to centrifugation (1500 rpm, 10 min). Samples were analyzed on TopCounter™ (Packard). The IC₅₀ was calculated using (one site binding competition analysis) GraphPad Prism5 as a measure of receptor affinity.
Membranes were prepared in the following way; the cells were rinsed with PBS and incubated with Versene for approximately 5 min before harvesting. The cells were flushed with PBS and the cell-suspension was centrifuged for 5 min at 1000 rpm. Cells were homogenized (Ultrathurrax) in a buffer containing 20 mM Na-HEPES and 10 mM EDTA (pH 7.4) and centrifuged at 20.000 rpm for 15 min. The resulting pellet was resuspended, homogenized and centrifuged (20.000 rpm, 15 min) in a buffer containing 20 mM Na-HEPES and 0.1 mM EDTA (pH 7.4, buffer 2). The resulting pellet was resuspended in buffer 2 and protein concentration was measured (BCA protein Assay, Pierce). The homogenate was kept cold during the whole procedure. The membranes were kept at −80° C. until use. Assay was performed in a 384 well Optiplate (PerkinElmer) in a total volume of 40 ul. Membranes were mixed with SPA beads.
For B1, the “Ratio hCT/hAmylin binding” value was 74.1.

Regarding B2, the “Ratio hCT/hAmylin binding” value was determined as 101.

For the molecule B3, the “Ratio hCT/hAmylin binding” value was 42.2.

A further experiment addresses T1, human calcitonin receptor. Kind of experiment: SPA competition with 125I-calcitonin on membranes of BHK cells with human calcitonin receptor (Assay VII). The protocol:
Membranes were prepared in the following way; the cells were rinsed with PBS and incubated with Versene for approximately 5 min before harvesting. The cells were flushed with PBS and the cell-suspension was centrifuged for 5 min at 1000 rpm. Cells were homogenized (Ultrathurrax) in a buffer containing 20 mM Na-HEPES and 10 mM EDTA (pH 7.4) and centrifuged at 20.000 rpm for 15 min. The resulting pellet was resuspended, homogenized and centrifuged (20.000 rpm, 15 min) in a buffer containing 20 mM Na-HEPES and 0.1 mM EDTA (pH 7.4, buffer 2). The resulting pellet was resuspended in buffer 2 and protein concentration was measured (BCA protein Assay, Pierce). The homogenate was kept cold during the whole procedure. The membranes were kept at −80° C. until use. Assay was performed in a 384 well Optiplate (PerkinElmer) in a total volume of 40 ul. Membranes were mixed with SPA beads. Final concentration of membranes 35 ng/μL final and Final concentration of SPA beads was 0.05 mg/well. Test-compounds were dissolved in DMSO and further diluted in assay buffer (50 mM Hepes, pH 7.4, 1 mM CaCl2, 5 mM MgCl₂, 0.1% OA and 0.02% Tween20). […] The final mixture was incubated for 120 min with shaking at 400 rpm at 25° C. prior to centrifugation (1500 rpm, 10 min). Samples were analyzed on TopCounter™ (Packard). The […] was calculated using (one site binding competition analysis) GraphPad Prism5 as a measure of receptor affinity.
As for B1, the IC50 (in general, the concentration needed to halve the response being measured) was determined as 6.74 nM.

As for B2, the IC50 was 12 nM.

Turning to B3, the half-maximal inhibitory concentration (IC50) was determined as 2.57 nM.

The target of another experiment is T2, human amylin receptor (amylin 3(a) …). Kind of experiment: SPA competition with 125I-rat amylin on membranes of BHK cells with human calcitonin receptor and RAMP-3 (Assay V). The protocol: The binding assay was performed using scintillation proximity assay (SPA) beads (RPNQ0001) from PerkinElmer and cell membranes from the Amylin 3(a)/CRE-luc cells (as described in Assay (II)) were used. Membranes were prepared in the following way; the cells were rinsed with PBS and incubated with Versene for approximately 5 min before harvesting. The cells were flushed with PBS and the cell-suspension was centrifuged for 5 min at 1000 rpm. Cells were homogenized (ultrathurrax) in a buffer containing 20 mM Na-HEPES and 10 mM EDTA (pH 7.4) and centrifuged at 20.000 rpm for 15 min. The resulting pellet was resuspended, homogenized and centrifuged (20.000 rpm, 15 min) in a buffer containing 20 mM Na-HEPES and 0.1 mM EDTA (pH 7.4, buffer 2). The resulting pellet was resuspended in buffer 2 and protein concentration was measured (BCA protein Assay, Pierce). The homogenate was kept cold during the whole procedure. The membranes were kept at −80° C. until use. The assay was performed in a 384 well Optiplate (PerkinElmer) in a total volume of 40 ul. Membranes were mixed with SPA beads. Final concentration of membranes 35 ng/μL final and SPA beads was 0.05 mg/well. Test-compounds were dissolved in DMSO and further diluted in assay buffer (50 mM Hepes, pH 7.4, 1 mM CaCl2, 5 mM MgCl₂, 0.1% OA and 0.02% Tween20). […] The final mixture was incubated with shaking at 400 rpm for 120 min at 25° C. prior to centrifugation (1500 rpm, 10 min). Samples were analyzed on TopCounter™ (Packard). The IC₅₀ was calculated using (one site binding competition analysis) GraphPad Prism5 as a measure of receptor affinity.
With B1, the IC50 was 0.091 nM.

Regarding B2, the concentration for half-maximal inhibition (IC50) amounted to 0.119 nM.

As to B3, the IC50 was found to be 0.061 nM.
